Laboratory results published in doi:10.1101/2024.03.04.583282v1.

Experiments:
Conditions in all cases: acCoA co-substrate, 50 mM Tris-HCl pH 8.5, 150 mM NaCl, 25 °C
purified protein [1] = substrate: NCCCC[C@H](N)C(=O)O; assay: purified protein
purified protein [2] = substrate: NCCC[C@H](N)C(=O)O; assay: purified protein
purified protein [3] = substrate: NCCCN; assay: purified protein
[4] = substrate: NCCCNCCCCNCCCN; assay: DTNB acetyltransferase assay; assay type: biochemical, Arabidopsis thaliana
[5] = substrate: NCCCCN; assay: DTNB acetyltransferase assay; assay type: biochemical, Arabidopsis thaliana
[6] = substrate: NCCSC[C@H](N)C(=O)O; assay: DTNB acetyltransferase assay; assay type: biochemical, Arabidopsis thaliana

B1: NATA1Δ (Arabidopsis thaliana) (protein)
chain: TGHRMFSRIRLATPTDVPFIHKLIHQMAVFERLTHLFVATESGLASTLFNSRPFQAVTVFLLEISPSPFPTTHDASSPDFTPFLETHKVDLPIEDPDREKFLPDKLNDVVVAGFVLFFPNYPSFLAKQGFYIEDIFMREPYRRKGFGKLLLTAVAKQAVKLGVGRVEWIVIDWNVNAINFYEQMGAQVFKEWRLCRLTGDALQAIDKLNI
Km (purified protein [1]): 12.70 ± 3.52 mM
kcat (purified protein [1]): 0.58 ± 0.09 s⁻¹
Km (purified protein [2]): 4.04 ± 0.82 mM
kcat (purified protein [2]): 0.64 ± 0.05 s⁻¹
Km (purified protein [3]): 0.44 ± 0.12 mM
kcat (purified protein [3]): 1.59 ± 0.08 s⁻¹
Km [4]: 2.26 ± 0.50 mM
kcat [4]: 1.56 ± 0.10 s⁻¹
Km [5]: 1.90 ± 0.42 mM
kcat [5]: 1.11 ± 0.12 s⁻¹
Km [6]: 0.54 ± 0.13 mM
kcat [6]: 2.04 ± 0.20 s⁻¹

B2: NATA2Δ (Arabidopsis thaliana) (protein)
chain: MFSRIRLATPSDVPFIHKLIHQMAVFERLTHLFSATESGLASTLFTSRPFQSFTVFLLEVSRSPFPATITSSPSPDFTPFFKTHNLDLPIDDPESYNFSPDMLNDVVVAGFVLFFPNYSSFLSKPGFYIEDIFVREPYRRKGFGSMLLTAVAKQAVKMGYGRVEWVVLDWNVNAIKFYEQMGAQILQEWRVCRLTGDALEAFDQVNI
Km (purified protein [1]): 9.48 ± 2.53 mM
kcat (purified protein [1]): 0.45 ± 0.10 s⁻¹
Km (purified protein [3]): 0.37 ± 0.07 mM
kcat (purified protein [3]): 1.46 ± 0.07 s⁻¹
Km [4]: 1.62 ± 0.35 mM
kcat [4]: 1.49 ± 0.08 s⁻¹
Km [5]: 2.29 ± 0.48 mM
kcat [5]: 1.04 ± 0.07 s⁻¹
Km [6]: 0.33 ± 0.08 mM
kcat [6]: 2.20 ± 0.10 s⁻¹
